Reference: publication PMC11344848, “Proximity-driven site-specific cyclization of phage-displayed peptides” (Nature Communications, 2024)
Positions of bridges follow the written chain, without caps; N, C: chain ends. No end group written: not given here. CCA = cyclopropenone-chloroacetamide linker between the two cysteines

Target: T1, streptavidin (UniProt P22629 25-183)
T1 construct: streptavidin; Plate-coated in the ELISA; covalently immobilised by amine coupling to a CM5 chip in SPR; Commercial streptavidin is often a truncated core form; source: bought: Pierce streptavidin-coated 96 well plate (Thermo Fisher Scientific) for the phage ELISA
Experiment: SPR; Biacore 8K, 25 °C; streptavidin amine-coupled to a CM5 chip; peptides 4.1 – 9000 nM in HBS-EP+ pH 7.4 at 30 µL/min, 180 s association, 600 s dissociation
Conditions: both partners purified

T1 sequence (P22629 25-183): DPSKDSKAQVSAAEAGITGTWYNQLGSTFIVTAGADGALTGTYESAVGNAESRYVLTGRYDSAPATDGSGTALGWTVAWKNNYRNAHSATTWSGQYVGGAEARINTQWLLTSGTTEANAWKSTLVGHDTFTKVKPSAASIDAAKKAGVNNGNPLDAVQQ

CPINIFHPPPDC (linker 1-12 via CCA) [synthetic peptide Str1-CCA]
Kd: 0.34 µM
